Data set [1] is described as follows: Biocatalytic assay (Michaelis–Menten) of CT and CT hybrids with suc-Ala-Ala-Pro-Phe-pNA. The data set is classed as biochemical, bovine. Here is the method:
N-Succinyl-L-Ala-L-Ala-L-Pro-L-Phe-p-nitroanilide was used as a substrate for enzyme bioactivity assays. In a cuvette, 0.1 M sodium phosphate buffer (910–990 μL, pH 8.0), substrate (0–80 μL, 6 mg/mL in DMSO), and enzyme (10 μL, 0.1 mg CT/mL in 0.1 M sodium phosphate buffer (pH 8.0), 40 nM as final CT concentration) were mixed. The rate of hydrolysis was determined by recording the increase in absorbance at 412 nm for the first 45 s after mixing. KM and kcat values were calculated using the Enzfitter software when plotting substrate concentration versus initial hydrolysis velocity.

Data set [2] in a line: Biocatalytic assay (Michaelis–Menten) of TR and TR hybrids with Tos-Gly-Pro-Arg-pNA. The data set is classed as biochemical, bovine. Conditions: [TR]0 = 8.4 nM, [Tos-GPR-pNA]0 = 0–302 μM, 100 mM Tris–HCl and 20 mM CaCl2 (pH 8.0), 37 °C, absorbance 412 nm, first 45 s, Enzfitter; for Km: read-out: KM. As to the method: N-Tosyl-L-Gly-L-Pro-L-Arg-p-nitroanilide was used as a substrate for enzyme bioactivity assays. In a cuvette, 0.1 M Tris HCl and 20 mM calcium chloride buffer (890–990 μL, pH 8.0), substrate (0–100 μL, 2 mg/mL in DMSO), and enzyme (10 μL, 0.02 mg TR/mL in 100 mM Tris–HCl and 20 mM calcium chloride (pH 8.0), 8.4 nM as final concentration) were mixed for enzyme bioactivity assays. The rate of hydrolysis was determined by recording the increase in absorbance at 412 nm for the first 45 s after mixing. KM and kcat values were calculated using Enzfitter software when plotting substrate concentration versus initial hydrolysis velocity. […]
Table S5. Char acterization and enzymatic activity of TR-pCBMA and inhibited pro- T R pol ymer h ybr i ds with different linkers between the inhibitory and cleavable peptide moieties.
SEC-M ALLS anal ysi s Michaelis-Menten parameters d
Mnb Mwb Đb DPc KM kcat kcat/KM samples kg mol-1 kg mol-1 (CBM A/inhibitor) (µM) (s-1) (µM-1 s-1) […]
SEC -MALLS and 1H NMR spectra. d conditions: [TR]0 = 8.4 nM, [Tos-GPR-pNA]0 = 0 - 302 µM, buffer 100 mM Tris-HCl and 20 mM CaCl2 (pH 8.0) at 37 °C. […]

[3] abbreviates: [CT]0 = 40 nM, [suc-AAPFpNA]0 = 0–960 μM, 100 mM sodium phosphate (pH 8.0), 37 °C, absorbance 412 nm, first 45 s, Enzfitter.

Where “and” joins values, the source holds several entries; their conditions need not be identical. Equal values may be shown once.

Our source for the Km, kcat and kcat/KM values is publication PMC11558679, “Artificial Zymogen Based on Protein–Polymer Hybrids” (Biomacromolecules, 2024).

By Km is commonly meant the substrate concentration at which the rate is half of its maximum. As to “N-succinyl-L-Ala-L-Ala-L-Pro-L-Phe-p-nitroanilide [suc-Ala-Ala-Pro-Phe-pNA, reference compound]”, the Km in data set [1] (rounded value in comparison with Ki, read-out: KM of the peptide substrate for native CT) turned out to be 90 µM.

As to “α-Chymotrypsin from bovine pancreas, Type II [native CT]”, in data set [1] (setting [3]), the kcat is 43.6 s^–1; the kcat/KM is 0.484 μM^–1 s^–1 and 0.484 ± 0.069 μM^–1 s^–1. In data set [1] ([CT]0 = 40 nM, [suc-AAPFpNA]0 = 0–960 μM, 100 mM sodium phosphate (pH 8.0), 37 °C, absorbance 412 nm, first 45 s, Enzfitter, read-out: KM), the Km was 90.1 ± 12.5 µM.

B1: TR-pCBMA hybrid: control without inhibitory domain; poly(CBMA) exclusively grafted from TR (conjugate, UniProt P00760 24-246, looked up)
Serine protease 1: IVGGYTCGANTVPYQVSLNSGYHFCGGSLINSQWVVSAAHCYKSGIQVRLGEDNINVVEGNEQFISASKSIVHPSYNSNTLNNDIMLIKLKSAASLNSRVASISLPTSCASAGTQCLISGWGNTKSSGTSYPDVLKCLKAPILSDSSCKSAYPGQITSNMFCAGYLEGGKDSCQGDSGGPVVCSGKLQGIVSWGSGCAQKNKPGVYTKVCNYVSWIKQTIASN
modifications: poly(CBMA) grafted
Consider B1, for which, in data set [2], the kcat was found to be 45.7 ± 1.1 s^–1, the kcat/KM came to 2.43 ± 0.36 μM^–1 s^–1 and the Km was 18.8 ± 2.8 µM. Further, in data set [2] (listed as TR-pCBMA), the kcat/KM was 2.43 ± 0.36 μM^–1 s^–1 and 2.43 μM^–1 s^–1. Besides, the kcat/KM in data set [1] (setting [3]) came to 0.292 μM^–1 s^–1.

B2: trypsin from bovine pancreas, Type I (protein, UniProt P00760 24-246, looked up)
Serine protease 1: IVGGYTCGANTVPYQVSLNSGYHFCGGSLINSQWVVSAAHCYKSGIQVRLGEDNINVVEGNEQFISASKSIVHPSYNSNTLNNDIMLIKLKSAASLNSRVASISLPTSCASAGTQCLISGWGNTKSSGTSYPDVLKCLKAPILSDSSCKSAYPGQITSNMFCAGYLEGGKDSCQGDSGGPVVCSGKLQGIVSWGSGCAQKNKPGVYTKVCNYVSWIKQTIASN
notes: trypsin from bovine pancreas, Type I (TR), Sigma-Aldrich
For B2, in data set [2], the kcat was 63.5 s^–1 and 63.5 ± 1.3 s^–1; the kcat/KM was found to be 2.87 ± 0.25 μM^–1 s^–1; the Km stood at 22.2 ± 1.9 µM.
